First the molecules themselves.
B4: Alp4 (untagged) (natural protein, S. pombe, UniProt Q9Y705 1-784, looked up)
chain: MVRSISSVLAKEESENGSPIPALEEGSVYHVSLKSEGVSPFSDRIQLNYLYDGKTFSDPSNLNIHQQEACLINELLNAFMGMEGVFVHLQDMKASSEFETIIMPPSFYILPGFDLGIKDIASEMLEMGSHYLSITAFIESRSHFEYGFVNHALCAALRKFVMDYVVLIMQCENQSRIDPNFSLQTLRLYTLPTSRSLRQVYLILRDLLLSMEKNASSSDDLGLSNIDDLLEQLNEGNDISHVVNATRSKKKVCKGGQVISFLTESLTKYAGDPVARKILTYLLREASRPYTKMLNEWIHLGLVNDPYDEFMIKIHKGITSMQLDEDYTDEYWEKRYVIREDQVPPQLLDLQNKVLFAGKYLNVVLECRKGVNNLASLNAKDDTQNQLLWPSTFDDDNFTLNIMNAYVYANESLLQLLQSSQSLYAHLYSLKHYFFLDQSDFFTTFLDNAQHELRKPAKYISITKLQSQLDLALRQPGTITATDPHKEYVTVEVNQTSLIDWLMHIVSISGLEEGTSSQGNEVWNESITKQADVGNETRNFESEHNRSTQGTSKVGSDKDINGFETMQLCYKVPFPLSLILSRKAIIRYQLLFRYFLLLRHVEMQLENSWVQHSKNSAWRLNSSNAKIEQWKRNSWLLRTRMLSFVQKIIYYTTSEVIETHWGKFMGELENARTVDNLMQEHIDFLDTCLKECMLTNSRLLKVQSKLLNTCAMFASYTSTFTRSLYLLENSEESFDEGRMDKMEEILRRYEDSFSRHLKSLVNACNYFASTETAALLSLVMKLTG
notes: Alp4, S. pombe γ-TuSC protein, homolog of human GCP2; also called homolog of human GCP2; source: High Five insect cells (MultiBac baculovirus), coexpressed with partners; in lysate, and co-purified in complexes

The target of data set [1] is T1, Alp6-MBP (S. pombe, UniProt Q9USQ2 1-832).
T1 construct: Alp6, S. pombe γ-TuSC protein, homolog of human GCP3; also called Alp6 (homolog of human GCP3) with C-terminal MBP-6xHis tag; tagged subunit of γ-TuSC^Alp6-MBP; source: High Five insect cells (MultiBac baculovirus), coexpressed with partners; in lysate, and purified on amylose; not shown: MBP, C-terminal, kept; 6xHis, C-terminal, kept
T1 sequence (looked up): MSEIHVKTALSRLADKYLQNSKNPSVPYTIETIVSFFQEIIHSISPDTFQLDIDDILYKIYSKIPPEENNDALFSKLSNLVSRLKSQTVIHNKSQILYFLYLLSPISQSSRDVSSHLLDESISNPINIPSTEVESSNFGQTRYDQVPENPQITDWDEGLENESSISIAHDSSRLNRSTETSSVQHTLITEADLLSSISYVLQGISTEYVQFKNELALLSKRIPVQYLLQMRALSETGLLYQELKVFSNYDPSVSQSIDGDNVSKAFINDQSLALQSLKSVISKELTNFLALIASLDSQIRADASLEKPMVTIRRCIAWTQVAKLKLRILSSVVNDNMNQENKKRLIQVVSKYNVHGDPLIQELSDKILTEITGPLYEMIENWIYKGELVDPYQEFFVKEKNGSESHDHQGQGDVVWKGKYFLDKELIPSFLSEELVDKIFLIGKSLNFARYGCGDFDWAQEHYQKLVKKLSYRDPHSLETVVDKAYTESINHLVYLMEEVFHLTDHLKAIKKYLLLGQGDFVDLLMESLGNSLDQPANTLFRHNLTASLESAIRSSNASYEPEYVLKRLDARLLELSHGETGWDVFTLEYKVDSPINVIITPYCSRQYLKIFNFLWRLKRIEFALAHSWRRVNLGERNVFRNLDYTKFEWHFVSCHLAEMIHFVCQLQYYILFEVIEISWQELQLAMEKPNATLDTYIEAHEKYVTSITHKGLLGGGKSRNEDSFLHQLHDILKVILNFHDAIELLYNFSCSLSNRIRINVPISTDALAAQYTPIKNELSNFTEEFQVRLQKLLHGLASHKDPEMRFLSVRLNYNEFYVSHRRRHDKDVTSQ
Nature of the data set: cross-linking; cross-linking mass spectrometry of purified MGM holocomplex (from coexpression) with EDC/Sulfo-NHS, 1:2:4.4 (w/w/w), 90 min, 18°C, 40 mM K-HEPES, 300 mM NaCl, 1 mM MgCl2 pH 7.5. The note with it: both partners purified.

The target in the data set “Alp4 (untagged)” is B4. The description is as above. The note with it: both partners purified.
Data set [2] deals with the molecule itself. Kind of data set: glycerol density-gradient centrifugation; 10-30% glycerol density gradient in HB100, 55,000 rpm, 4°C, 45 or 80 min; one affinity-purified complex alone, 100 μL at 1 mg/mL; S values against marker proteins.
Data set [3] deals with the molecule itself. Kind of data set: SEC-MALS; 100 μL of 1.98 mg/mL Mzt1 on Superdex-75 10/300 GL in 100 mM Tris, 50 mM NaCl, pH 7.5, 22°C.
For data set [4], the target named is T1, Alp6-MBP. Nature of the data set: pull-down; amylose resin purification via Alp6-MBP from lysates of High Five cells coexpressing Alp6-MBP, Alp4 and Gtb1, with or without Mzt1-6xHis; HB100 buffer (40 mM K-HEPES, 100 mM KCl, 1 mM EGTA, 1 mM MgCl2, 0.1 mM GTP, 1 mM DTT pH 7.5), overnight 4°C, maltose elution, SDS-PAGE. The settings on record: partners not purified.

B1: 6xHis-Mto1[bonsai] (domain or fragment, S. pombe, UniProt O94488 131-549, looked up)
chain: TTDDEQLSPVLTANQGFQSQEQYEEDSYNNYDYTSDPSSPNYISSSLDQLPHLDDEDDLQLTPIKEERNYLHSQDAPTTNALSKKISDILIPASAMKDLKDRKNALAKEFEESQPGSSLTLKEQANVIDNLRKEVFGLKLKCYFLYDQLNKFHDQEVQDIMKQNIDLKTLTMELQRAVAGYEKKISGLESRIKPDQSFNLSTPSPAPSNLITLQSRYSQALSELETTKRAFAALRKEKSKKTNYSVGAYNEDRNVLSNMLDNERREKEALLQELESLRVQLSKKVPMPAKNTDERVIETLQRSNELLRMDISMQNEALLLRKQENDRLVKQVEELTVALNSGKMNAIVEAESSKNELWDSMMVSRMKTQEQSIELTRLYKQLQDIEEDYENKLMRMEQQWREDVDQLQEYVEEITQELQ
notes: Mto1 of S. pombe (CM1-domain protein), amino acids 131-549; lacks residues 1-130 and 550-1,115; also called Mto1(131-549); source: High Five insect cells (MultiBac baculovirus), coexpressed with Mto2; in lysate, and co-purified in complexes; not shown: 6xHis, N-terminal, kept
B1: the binding result with Alp6-MBP [1] and with Alp4 (untagged) was “binds” throughout.

B2: Mto1/2[bonsai] complex (complex, S. pombe)
chain 1: TTDDEQLSPVLTANQGFQSQEQYEEDSYNNYDYTSDPSSPNYISSSLDQLPHLDDEDDLQLTPIKEERNYLHSQDAPTTNALSKKISDILIPASAMKDLKDRKNALAKEFEESQPGSSLTLKEQANVIDNLRKEVFGLKLKCYFLYDQLNKFHDQEVQDIMKQNIDLKTLTMELQRAVAGYEKKISGLESRIKPDQSFNLSTPSPAPSNLITLQSRYSQALSELETTKRAFAALRKEKSKKTNYSVGAYNEDRNVLSNMLDNERREKEALLQELESLRVQLSKKVPMPAKNTDERVIETLQRSNELLRMDISMQNEALLLRKQENDRLVKQVEELTVALNSGKMNAIVEAESSKNELWDSMMVSRMKTQEQSIELTRLYKQLQDIEEDYENKLMRMEQQWREDVDQLQEYVEEITQELQ
chain 2: MSEHNYQSDREVAEDPFLNYEASANQLSSNSRESTPRGSPWRAGMRSASLMTEPLEDSMYSDNNYLDNGVSFTKDENPLYSPSWPSLADANVNSMKSNNAIQEHKAAKFVSEKSLEKVSTADNNLVLQELENLRERLNQVELQLSERPSSYLGYHNNLSPYRSPNSYPSLLPSTHSPHSPAPLSTMQTALMRLRTYHPSPIILKPVEQAVNHAITLVNTSPSSVVDALCRSLAELCLGLVQEAIDASILSQQESSNSLDLVRHTPPLNYTSSVDSSPQRMASDSYGRPSLHLNDPFPSVDLQSNELSHHNVRTTLFSDDSRFHSKIHTHSTPPSQMYSAASHFRYRSDPSTRHVSNSTNKSSLHPSPTSLRVAHPIIPQRASPASQSFPSLQDTPSP
notes: Mto1 of S. pombe, amino acids 131-549 (Mto1[bonsai]); as m7; Mto2 of S. pombe; as m8; Copy numbers of the two chains in the complex are not measured here; also called 6xHis-Mto1/2[bonsai]; source: High Five insect cells (MultiBac baculovirus); coexpressed in lysate, or purified (ammonium sulfate, Ni2+ Fractogel, Superose 6); not shown: 6xHis, N-terminal, kept
B2: the binding result in data set [2] is “binds”.

B3: Mzt1-6xHis (natural protein, S. pombe, UniProt P0CF96 1-64, looked up)
chain: MSESTKETIEVLYEIGTLLGTELDKTTLSLCISLCENNVHPEAIAQIIREIRMAQEQTVDTEPS
notes: Mzt1 of S. pombe; also called MOZART1 homolog; source: High Five insect cells (MultiBac baculovirus); coexpressed in lysate, co-purified in complexes, or purified alone (Ni2+ IMAC, Superdex 75); not shown: 6xHis, C-terminal, kept
In the case of B3, the “stoichiometry N” value in data set [3] stood at 2.

With B4, in the data set with Alp6-MBP [4], the binding result is on record as “binds”.

B5: γ-tubulin (Gtb1), untagged (natural protein, S. pombe, UniProt P25295 1-446, looked up)
chain: MGREIITLQAGQCGNQIGSQFWQQLCLEHGIGPDGTLESFATEGVDRKDVFFYQSDDTRYIPRAILIDLEPRVVNNILSDTYGSLYNPENILITKNGGGAGNNWANGYSHAERIFEDIMDMIDREADGSDSLEGFSLLHSIAGGTGSGLGSFLLERLNDRYPKKIIQTYSVFPNSQSVSDVVVQPYNSLLALKRLTLNADSVVVLDNAALAHIAADRLHTQNPTFHQQNQLVSTVMSASTTTLRYPGYMNNDLVSIIASLIPSPRCHFLLTSYTPFTNQQVEEAKAIRKTTVLDVMRRLLLPKNQMVSVNPSKKSCFISILDIIQGEADPADVHKSLLRIRERRYASFIPWGPASIQVALSKKSPYIKTNHRVSGLMLANHTSIASLFKRTLDQYDRLRKRNAFLEQYKKEAIFEDDLNEFDSSRDVVADLINEYEACEDPNYLSL
notes: γ-tubulin Gtb1 of S. pombe; source: High Five insect cells (MultiBac baculovirus), coexpressed with partners; in lysate, and co-purified in complexes
For B5, the binding result with Alp6-MBP [4] is “binds”.

The record behind these values is paper PMC6616311, “Reconstitution of Microtubule Nucleation In Vitro Reveals Novel Roles for Mzt1” (Current Biology, 2019).
